Assay results from patent US20210283221A1.

Molecular target: human complement C5 with an unidentified amino acid substitution at Arg885 (in serum of the Example 4 patient) (human), P01031
Experiment: cell-based or functional assay

B1: Coversin protein, Q5YD59 19-168 (protein)
chain: DSESDCTGSEPVDAFQAFSEGKEAYVLVRSTDPKARDCLKGEPAGEKQDNTLPVMMTFKNGTDWASTDWTFTLDGAKVTATLGNLTQNREVVYDSQSHHCHVDKVEKEVPDYEMWMLDAGGLEVEVECCRQKLEELASGRNQMYPHLKDC
Q: How did the residual CH50 (U Eq/ml) as % of baseline in serum of the Example 4 patient at Coversin approximately 15 ug/ml (% of baseline CH50) turn out when B1 was run?
A: < 5
